The record followed here is US20240383958A1, “APELIN RECEPTOR AGONISTS AND USES THEREOF” (VISTERRA, INC., priority 2023, published 2024).

The target of assay [1] is T1, apelin receptor (AGTRL1) on CHO-K1 cells (UniProt P35414 1-380, limits assumed).
T1 sequence (looked up): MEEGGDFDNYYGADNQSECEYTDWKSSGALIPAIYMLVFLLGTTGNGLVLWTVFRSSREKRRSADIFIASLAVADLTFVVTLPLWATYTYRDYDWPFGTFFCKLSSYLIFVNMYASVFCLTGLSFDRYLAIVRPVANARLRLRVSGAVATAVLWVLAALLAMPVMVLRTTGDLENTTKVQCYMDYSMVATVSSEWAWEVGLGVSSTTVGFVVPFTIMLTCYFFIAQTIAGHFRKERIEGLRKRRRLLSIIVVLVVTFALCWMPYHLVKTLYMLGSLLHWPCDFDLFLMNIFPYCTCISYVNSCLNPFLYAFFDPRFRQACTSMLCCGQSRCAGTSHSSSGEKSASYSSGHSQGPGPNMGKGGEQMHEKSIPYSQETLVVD
The experiment in a line: cell-based or functional assay.

In assay [2] the target is T2, APJ-eGFP fusion protein on CHO-M1 cells (UniProt P35414 1-380).
T2 sequence (looked up): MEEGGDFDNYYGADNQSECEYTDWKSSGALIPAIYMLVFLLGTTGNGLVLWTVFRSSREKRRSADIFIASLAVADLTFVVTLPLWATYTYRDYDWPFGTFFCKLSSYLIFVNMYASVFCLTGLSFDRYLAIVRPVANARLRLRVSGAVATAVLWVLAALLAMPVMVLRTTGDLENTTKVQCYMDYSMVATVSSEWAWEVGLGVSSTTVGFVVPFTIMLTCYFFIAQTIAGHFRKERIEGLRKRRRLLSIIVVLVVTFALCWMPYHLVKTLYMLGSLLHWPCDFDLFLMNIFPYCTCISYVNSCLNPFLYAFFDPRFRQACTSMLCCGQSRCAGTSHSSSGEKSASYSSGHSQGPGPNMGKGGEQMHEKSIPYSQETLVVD
The experiment in a line: cell-based or functional assay.

B1: ELA-A (Fc fusion)
chain: DKTHTSPPSPAPEAAGGPSVFLFPPKPKDTLMISRTPEVTCVVVDVSHEDPEVKFNWYVDGVEVHNAKTKPREEQYNSTYRVVSVLTVLHQDWLNGKEYKCKVSNKALPAPIEKTISKAKGQPREPQVYTLPPSREEMTKNQVNLTCLVKGFYPSDIAVEWESNGQPENNYKTTPPVLDSDGSFFLNSTLTVDKSRWQQGNVFSCSVMHEALHNHYTQKSLSLSPGKGGGGSGGGGSGGGGSKLRKHNCLQRRCMPLHSRVPFP
As for B1, in assay [1], the “ERK EC50” value was found to be 0.19 nM, the “beta-Arrestin EC50 (nM) Exp. 1” value was 90.1 nM, the “beta-Arrestin EC50 (nM) Exp. 2” value was 42.6 nM and the “cAMP EC50 (nM) Exp. 1” value turned out to be 0.85 nM. For the same molecule, the “cAMP EC50 (nM) Exp. 2” value in assay [1] amounted to 1.4 nM. Besides, the “Internalization Score” value in assay [2] was determined as 3.

B2: ELA-G (Fc fusion)
chain: DKTHTSPPSPAPEAAGGPSVFLFPPKPKDTLMISRTPEVTCVVVDVSHEDPEVKFNWYVDGVEVHNAKTKPREEQYNSTYRVVSVLTVLHQDWLNGKEYKCKVSNKALPAPIEKTISKAKGQPREPQVYTLPPSREEMTKNQVNLTCLVKGFYPSDIAVEWESNGQPENNYKTTPPVLDSDGSFFLNSTLTVDKSRWQQGNVFSCSVMHEALHNHYTQKSLSLSPGKGGGGSGGGGSGGGGSKLRKHNCLQRRCMPLHSYVPFP
As to B2, in assay [1], the “beta-Arrestin EC50 (nM) Exp. 1” value was found to be 89.1 nM, the “beta-Arrestin EC50 (nM) Exp. 2” value came to 521 nM, the “cAMP EC50 (nM) Exp. 1” value is 9.91 nM and the “cAMP EC50 (nM) Exp. 2” value turned out to be 14.3 nM. For the same molecule, the “Internalization Score” value in assay [2] is 1.

B3: ELA-D (Fc fusion)
chain: DKTHTSPPSPAPEAAGGPSVFLFPPKPKDTLMISRTPEVTCVVVDVSHEDPEVKFNWYVDGVEVHNAKTKPREEQYNSTYRVVSVLTVLHQDWLNGKEYKCKVSNKALPAPIEKTISKAKGQPREPQVYTLPPSREEMTKNQVNLTCLVKGFYPSDIAVEWESNGQPENNYKTTPPVLDSDGSFFLNSTLTVDKSRWQQGNVFSCSVMHEALHNHYTQKSLSLSPGKGGGGSGGGGSGGGGSKLRKHNCLQRRCMPLHQRVPFP
On to B3, for which, in assay [1], the “beta-Arrestin EC50 (nM) Exp. 2” value amounted to 922 nM, the “cAMP EC50 (nM) Exp. 1” value was determined as 10.7 nM and the “cAMP EC50 (nM) Exp. 2” value is 4.4 nM. Also, the “Internalization Score” value in assay [2] is 1.

B4: ELA-H (Fc fusion)
chain: DKTHTSPPSPAPEAAGGPSVFLFPPKPKDTLMISRTPEVTCVVVDVSHEDPEVKFNWYVDGVEVHNAKTKPREEQYNSTYRVVSVLTVLHQDWLNGKEYKCKVSNKALPAPIEKTISKAKGQPREPQVYTLPPSREEMTKNQVNLTCLVKGFYPSDIAVEWESNGQPENNYKTTPPVLDSDGSFFLNSTLTVDKSRWQQGNVFSCSVMHEALHNHYTQKSLSLSPGKGGGGSGGGGSGGGGSKLRKHNCLQRRCMPYHSRVPFP
In the case of B4, in assay [1], the “beta-Arrestin EC50 (nM) Exp. 1” value was determined as 21.9 nM, the “beta-Arrestin EC50 (nM) Exp. 2” value stood at 97.5 nM, the “cAMP EC50 (nM) Exp. 1” value was 10 nM and the “cAMP EC50 (nM) Exp. 2” value was 5.8 nM. Also, in assay [2], the “Internalization Score” value came to 2.

B5: ELA-K (Fc fusion)
chain: DKTHTSPPSPAPEAAGGPSVFLFPPKPKDTLMISRTPEVTCVVVDVSHEDPEVKFNWYVDGVEVHNAKTKPREEQYNSTYRVVSVLTVLHQDWLNGKEYKCKVSNKALPAPIEKTISKAKGQPREPQVYTLPPSREEMTKNQVNLTCLVKGFYPSDIAVEWESNGQPENNYKTTPPVLDSDGSFFLNSTLTVDKSRWQQGNVFSCSVMHEALHNHYTQKSLSLSPGKGGGGSGGGGSGGGGSKLRKHNCLIRRCMPLHSRVPFP
In the case of B5, in assay [1], the “beta-Arrestin EC50 (nM) Exp. 1” value amounted to 3.45 nM, the “beta-Arrestin EC50 (nM) Exp. 2” value was 12.2 nM, the “cAMP EC50 (nM) Exp. 1” value worked out at 4.76 nM and the “cAMP EC50 (nM) Exp. 2” value is 5.7 nM. The “Internalization Score” value in assay [2] is 2.

B6: ELA-L (Fc fusion)
chain: DKTHTSPPSPAPEAAGGPSVFLFPPKPKDTLMISRTPEVTCVVVDVSHEDPEVKFNWYVDGVEVHNAKTKPREEQYNSTYRVVSVLTVLHQDWLNGKEYKCKVSNKALPAPIEKTISKAKGQPREPQVYTLPPSREEMTKNQVNLTCLVKGFYPSDIAVEWESNGQPENNYKTTPPVLDSDGSFFLNSTLTVDKSRWQQGNVFSCSVMHEALHNHYTQKSLSLSPGKGGGGSGGGGSGGGGSKLRKHNCATRRCMPLHSRVPFP
On to B6, for which, in assay [1], the “beta-Arrestin EC50 (nM) Exp. 1” value is 7.54 nM, the “beta-Arrestin EC50 (nM) Exp. 2” value came out at 6.9 nM, the “cAMP EC50 (nM) Exp. 1” value was 0.632 nM and the “cAMP EC50 (nM) Exp. 2” value came to 2.8 nM. Further, the “Internalization Score” value in assay [2] is 2.

B7: ELA-B (Fc fusion)
chain: DKTHTSPPSPAPEAAGGPSVFLFPPKPKDTLMISRTPEVTCVVVDVSHEDPEVKFNWYVDGVEVHNAKTKPREEQYNSTYRVVSVLTVLHQDWLNGKEYKCKVSNKALPAPIEKTISKAKGQPREPQVYTLPPSREEMTKNQVNLTCLVKGFYPSDIAVEWESNGQPENNYKTTPPVLDSDGSFFLNSTLTVDKSRWQQGNVFSCSVMHEALHNHYTQKSLSLSPGKGGGGSGGGGSGGGGSKLNKHNCLQRRCMPLHSRVPFP
Consider B7, for which, in assay [1], the “ERK EC50” value stood at 0.92 nM, the “beta-Arrestin EC50 (nM) Exp. 1” value amounted to 1120 nM, the “beta-Arrestin EC50 (nM) Exp. 2” value came out at 59.9 nM and the “cAMP EC50 (nM) Exp. 1” value came to 0.349 nM. In addition, the “cAMP EC50 (nM) Exp. 2” value in assay [1] was found to be 1.5 nM. Also, in assay [2], the “Internalization Score” value was determined as 3.

B8: ELA-F (Fc fusion)
chain: DKTHTSPPSPAPEAAGGPSVFLFPPKPKDTLMISRTPEVTCVVVDVSHEDPEVKFNWYVDGVEVHNAKTKPREEQYNSTYRVVSVLTVLHQDWLNGKEYKCKVSNKALPAPIEKTISKAKGQPREPQVYTLPPSREEMTKNQVNLTCLVKGFYPSDIAVEWESNGQPENNYKTTPPVLDSDGSFFLNSTLTVDKSRWQQGNVFSCSVMHEALHNHYTQKSLSLSPGKGGGGSGGGGSGGGGSKLRKHNCLKRRCMPLHSRVPFP
As to B8, in assay [1], the “beta-Arrestin EC50 (nM) Exp. 1” value is 9.59 nM, the “beta-Arrestin EC50 (nM) Exp. 2” value was found to be 43.5 nM, the “cAMP EC50 (nM) Exp. 1” value was found to be 1.01 nM and the “cAMP EC50 (nM) Exp. 2” value stood at 1 nM. Also, the “Internalization Score” value in assay [2] stood at 3.

B9: ELA-C (Fc fusion)
chain: DKTHTSPPSPAPEAAGGPSVFLFPPKPKDTLMISRTPEVTCVVVDVSHEDPEVKFNWYVDGVEVHNAKTKPREEQYNSTYRVVSVLTVLHQDWLNGKEYKCKVSNKALPAPIEKTISKAKGQPREPQVYTLPPSREEMTKNQVNLTCLVKGFYPSDIAVEWESNGQPENNYKTTPPVLDSDGSFFLNSTLTVDKSRWQQGNVFSCSVMHEALHNHYTQKSLSLSPGKGGGGSGGGGSGGGGSKLRKHNCLQRRCMILHSRVPFP
As for B9, in assay [1], the “ERK EC50” value worked out at 1.13 nM, the “beta-Arrestin EC50 (nM) Exp. 1” value is 535 nM, the “beta-Arrestin EC50 (nM) Exp. 2” value stood at 75.1 nM and the “cAMP EC50 (nM) Exp. 1” value stood at 0.577 nM. In addition, the “cAMP EC50 (nM) Exp. 2” value in assay [1] stood at 1 nM. In addition, the “Internalization Score” value in assay [2] came out at 2.

B10: ELA-E (Fc fusion)
chain: DKTHTSPPSPAPEAAGGPSVFLFPPKPKDTLMISRTPEVTCVVVDVSHEDPEVKFNWYVDGVEVHNAKTKPREEQYNSTYRVVSVLTVLHQDWLNGKEYKCKVSNKALPAPIEKTISKAKGQPREPQVYTLPPSREEMTKNQVNLTCLVKGFYPSDIAVEWESNGQPENNYKTTPPVLDSDGSFFLNSTLTVDKSRWQQGNVFSCSVMHEALHNHYTQKSLSLSPGKGGGGSGGGGSGGGGSKLRKHNCLQRRCMPLHRRVPFP
Take B10: in assay [1], the “beta-Arrestin EC50 (nM) Exp. 2” value turned out to be 352 nM, the “cAMP EC50 (nM) Exp. 1” value was 4.42 nM and the “cAMP EC50 (nM) Exp. 2” value was found to be 2.4 nM. In addition, in assay [2], the “Internalization Score” value is 0.

B11: APL-K (Fc fusion)
chain: DKTHTSPPSPAPEAAGGPSVFLFPPKPKDTLMISRTPEVTCVVVDVSHEDPEVKFNWYVDGVEVHNAKTKPREEQYNSTYRVVSVLTVLHQDWLNGKEYKCKVSNKALPAPIEKTISKAKGQPREPQVYTLPPSREEMTKNQVNLTCLVKGFYPSDIAVEWESNGQPENNYKTTPPVLDSDGSFFLNSTLTVDKSRWQQGNVFSCSVMHEALHNHYTQKSLSLSPGKGGGGSGGGGSGGGGSQRPRLQHKNPMAF
With B11, the “Internalization Score” value in assay [2] amounted to 0.

B12: APL-L (Fc fusion)
chain: DKTHTSPPSPAPEAAGGPSVFLFPPKPKDTLMISRTPEVTCVVVDVSHEDPEVKFNWYVDGVEVHNAKTKPREEQYNSTYRVVSVLTVLHQDWLNGKEYKCKVSNKALPAPIEKTISKAKGQPREPQVYTLPPSREEMTKNQVNLTCLVKGFYPSDIAVEWESNGQPENNYKTTPPVLDSDGSFFLNSTLTVDKSRWQQGNVFSCSVMHEALHNHYTQKSLSLSPGKGGGGSGGGGSGGGGSQRPRLQHKNPMAW
With B12, in assay [2], the “Internalization Score” value worked out at 0.

B13: APL-M (Fc fusion)
chain: DKTHTSPPSPAPEAAGGPSVFLFPPKPKDTLMISRTPEVTCVVVDVSHEDPEVKFNWYVDGVEVHNAKTKPREEQYNSTYRVVSVLTVLHQDWLNGKEYKCKVSNKALPAPIEKTISKAKGQPREPQVYTLPPSREEMTKNQVNLTCLVKGFYPSDIAVEWESNGQPENNYKTTPPVLDSDGSFFLNSTLTVDKSRWQQGNVFSCSVMHEALHNHYTQKSLSLSPGKGGGGSGGGGSGGGGSQRPRLSHWGPMAW
Regarding B13, the “Internalization Score” value in assay [2] was 0.
